Here are results for 4 molecules from US20100022456A1 (Novo Nordisk, published 2010).

The target of this assay is T1, Ser-hPRLR(1-210) (human, UniProt P16471 25-234).
T1 construct: range 1-210; Amine-coupled to a CM5 chip in the SPR assay; also called soluble form of the receptor; PRL receptor
T1 sequence: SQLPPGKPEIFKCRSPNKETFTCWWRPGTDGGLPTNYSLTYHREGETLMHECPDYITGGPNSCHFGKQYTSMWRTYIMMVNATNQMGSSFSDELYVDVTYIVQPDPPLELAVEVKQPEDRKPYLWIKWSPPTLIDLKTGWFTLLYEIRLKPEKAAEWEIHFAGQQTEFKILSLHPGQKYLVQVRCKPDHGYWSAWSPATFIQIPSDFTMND
The assay is described as follows: SPR (Biacore T100), receptor amine-coupled to CM5 chip, ligand injected. The protocol:
The soluble form of the receptor (10 μg/ml in 10 mM sodium acetate, pH 4.0) was injected into a Biacore T100 instrument and coupled to a CM5 sensor chip by amine coupling chemistry. The immobilized level was about 500 RUs of coupled receptor. […] Regeneration was accomplished with 4.5 M MgCl₂ for 90 sec with a flow rate of 30 μl/min between runs.
Background: In SPR one partner is held on a chip, and binding of the other changes the refractive index at the surface.

A word on the Kd: it is the equilibrium constant for the complex coming apart. A lower Kd goes with higher affinity.

Where a chain is given by its changes, count along the chain named. Names may count otherwise.

B1: Disulfide bridged PRL 12-199 Q12S E128C dimer (ligand)
chain: SVTLRDLFDRAVVLSHYIHNLSSEMFSEFDKRYTHGRGFITKAINSCHTSSLATPEDKEQAQQMNQKDFLSLIVSILRSWNEPLYHLVTEVRGMQEAPEAILSKAVEIEEQTKRLLCGMELIVSQVHPETKENEIYPVWSGLPSLQMADEESRLSAYYNLLHCLRRDSHKIDNYLKLLKCRIIHNNNC
modifications: intermolecular disulfide bridge between Cys 128 of the two monomers
notes: also called PRL dimer 1; 0033
For B1, the Kd was found to be 6 nM.

B2: PRL(12-199) Q12S G129R (ligand)
chain: B1 chain with C117E, G118R
notes: Monomeric prolactin receptor antagonist analogue; also called PRL G129R analog
B2 had a Kd of 30 nM.

B3: Disulfide bridged PRL 12-199 Q12S R125C dimer (ligand)
chain: B1 chain with R114C, C117E
modifications: intermolecular disulfide bridge between Cys 125 of the two monomers
Take B3: the Kd was 20 nM.

B4: Disulfide bridged PRL 12-199 Q12S S61A E128C dimer (ligand)
chain: B1 chain with S50A
modifications: intermolecular disulfide bridge between Cys 128 of the two monomers
B4 came in with a Kd of 3 nM.
